Test results: patent US8093046B2, “CVN-12p1: a recombinant allosteric lectin antagonist of HIV-1 envelope gp120 interactions” (Philadelphia Health and Education Corporation d/b/c Drexel …, priority 2006, dated 2012)

B1: CVN: 11 kDa protein originally isolated from the cyanobacterium Nostoc ellipsosporum, binds high mannose oligosaccharides of gp120 (protein)
chain: LGKFSQTCYNSAIQGSVLTSTCERTNGGYNTSSIDLNSVIENVDGSLKWQPSNFIETCRNTQLAGSSELAAECKTRAQQFVSTKINLDDHIANIDGTLKYEHHHHHH

Tests used:
HIV-1 BaL [1] = test: Viral synergy study, HIV-1 BaL replication in PM-1 cells (gp120 ELISA); type: cell-based; conditions: 12p1 16-31 μM
Experimental: The curves are also shown for the dose response expected if the effects were simply additive.
Viral replication was determined by gp120 ELISA after a seven day incubation.
Dilutions and cells were in RPMI supplemented with 10% fetal calf serum, pen, strep and glutamine. Cells were incubated for 7 days and viral replication determined by gp120 ELISA. Each condition was performed in sextuplet and the mean used to calculate IC50 values. Analysis of combined effects was also carried out using the median effect principle developed by Chou and Talalay^39,40, and using the computer program CalcuSyn (BioSoft).

HIV-1YU2 gp120 = HIV-1YU2 gp120 (Human immunodeficiency virus type 1 group M subtype B, UniProt P35961); conditions: at 300 nM, about 250 RUs gp120 immobilized
Experimental: Approximately 250 RUs of either YU2 gp120 or the non-specific control antibody 2B6R were immobilized to a CM5 dextran chip by amine coupling. […] Signals from the reference 2B6R flow cell were used to correct for non-specific interactions and bulk effects (FIGS. 4A, B).
All surface plasmon resonance studies were performed on a Biacore 3000 (Biacore Inc., Uppsala, Sweden). CM5 dextran chip was derivatized by amine coupling with 250 RUs of YU2 gp120 or 2B6R (anti-IL5 receptor βchain) IgG as a control surface. […] Surfaces were regenerated with multiple short pulses of 10 mM glycine HCl, pH 1.7.

[2] = system: gp120s from a variety of strains of HIV-1 of diverse clades and tropisms; test: ELISA binding to gp120 of a variety of clades and tropisms; conditions: 50 nM, 100 ng gp120
Excerpt: Bars represent triplicate determination after the subtraction of non-specific binding to BSA. Error bars indicate one standard deviation.
We therefore tested the ability of the chimera to bind to the gp120s from a variety of strains of HIV-1 of diverse clades and tropisms.

YU2 gp120 / mAb 2G12 = YU2 gp120 / mAb 2G12 (Human immunodeficiency virus type 1 group M subtype B, UniProt P35961); conditions: ELISA, 50 μg/ml 2G12
Excerpt: Monomeric HIV-1YU2 gp120 was adsorbed onto ELISA plates overnight prior to blocking with 1% BSA.
This antibody recognizes the conformationally-flexible, CD4-unliganded form of gp120^53.

YU2 gp120 / mAb 17b [3] = molecular target: T1, YU2 gp120 / mAb 17b (Human immunodeficiency virus type 1 group M subtype B, UniProt P35961); conditions: ELISA, 2 μg/ml 17b
YU2 gp120 / mAb F105 = molecular target: T2, YU2 gp120 / mAb F105 (Human immunodeficiency virus type 1 group M subtype B, UniProt P35961); conditions: from literature; cited from earlier work
T2 construct: made in house; host or cells: gp120: Drosophila S2 cells

SHIV89.6P = conditions: cited from earlier work
[4] = system: SIV/HIV-1 virus SHIV89.6P; conditions: gel formulations applied rectally, male macaques; cited from earlier work
HIV-1 BaL [5] = conditions: recombinant CVN; cited from earlier work
YU2 gp120 = YU2 gp120 (Human immunodeficiency virus type 1 group M subtype B, UniProt P35961); conditions: read-out: Equilibrium dissociation constant KD for binding to YU2; cited from earlier work
[6] = molecular target: gp120 of HIV-1 JRFL and HIV-1 89.6; conditions: cited from earlier work
YU2 gp120 / mAb 17b [7] = molecular target: T1, YU2 gp120 / mAb 17b; conditions: from literature; cited from earlier work

Molecule | Inhibitory effect on viral replication alone (HIV-1 BaL [1]) | Biosensor signal on immobilized YU2 gp120 (HIV-1YU2 gp120) [RU] | Binding to gp120s of diverse strains in ELISA [2] | Competition of gp120 binding to 2G12 antibody (YU2 gp120 / mAb 2G12) | Effect on interaction between 17b and gp120 (YU2 gp120 / mAb 17b [3]) | Effect on F105 binding to gp120 (YU2 gp120 / mAb F105) | Clinically adverse effects in in vivo assays (SHIV89.6P; macaques, gel) | CVN treated macaques not infected (SHIV89.6P; vaginal gel, SHIV89.6P challenge, controls 8 of 8 infected) | Protection against rectal challenge [4] | Cytotoxic effects in ectocervical explants (HIV-1 BaL [5]) | Infection of human ectocervical explants (HIV-1 BaL [5]) | Kd (YU2 gp120) [nM] | Affinity (KD) of interaction with gp120 [6] | Effect on 17b-gp120 interaction (YU2 gp120 / mAb 17b [7])
RINNIPWSEAMM [12p1] | only small inhibitory effect | – | – | – | – | – | – | – | – | – | – | – | – | –
B1 | – | 95 | behaved equivalently with all strains tested | show the expected competition | neither CVN nor L5-S12p1 had any effect | minimal effect | no clinically adverse effects | 15 of 18 | protected against challenge | no cytotoxic effects | blocked HIV-1 BaL infection | 11 | in the nM KD range | cannot inhibit this interaction
